Substitutions are numbered along the chain they refer to. In names and notes the source's numbering stands.
T1: His-PGK1 (wild type, not acetylated) (human, UniProt P00558 1-417)
T1 sequence: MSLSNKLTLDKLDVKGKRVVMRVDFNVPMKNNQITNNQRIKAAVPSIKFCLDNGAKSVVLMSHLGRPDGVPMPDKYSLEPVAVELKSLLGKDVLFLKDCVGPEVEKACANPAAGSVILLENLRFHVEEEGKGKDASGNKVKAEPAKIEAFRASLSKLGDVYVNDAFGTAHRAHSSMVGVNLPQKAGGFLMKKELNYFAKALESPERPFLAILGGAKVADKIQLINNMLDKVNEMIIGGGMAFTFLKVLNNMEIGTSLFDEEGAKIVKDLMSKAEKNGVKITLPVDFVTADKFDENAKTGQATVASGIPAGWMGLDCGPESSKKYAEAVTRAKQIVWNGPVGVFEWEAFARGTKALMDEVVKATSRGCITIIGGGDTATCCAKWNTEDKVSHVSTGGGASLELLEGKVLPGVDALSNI

B1: GST-ARD1 (wild type) (enzyme, human, UniProt P41227 1-235, looked up)
chain: MNIRNARPEDLMNMQHCNLLCLPENYQMKYYFYHGLSWPQLSYIAEDENGKIVGYVLAKMEEDPDDVPHGHITSLAVKRSHRRLGLAQKLMDQASRAMIENFNAKYVSLHVRKSNRAALHLYSNTLNFQISEVEPKYYADGEDAYAMKRDLTQMADELRRHLELKEKGRHVVLGAIENKVESKGNSPPSSGEACREEKGLAAEDSGGDSKDLSEVSETTESTDVKDSSEASDSAS
B2: His-PGK1 acetylated by Flag-ARD1 and Ac-CoA in vitro (enzyme, human)
chain: T1 sequence
modifications: acetyl-lysine at K388 (by ARD1 in vitro)
B3: GST-ARD1 S228A (enzyme, human, UniProt P41227 1-235, looked up)
chain: B1 chain with S228A

Key:
[1] = target: T1, His-PGK1 (wild type, not acetylated); test: pull-down
[2] = target: GST-Beclin1 (human, UniProt Q14457 1-450); test: pull-down
Chain of GST-Beclin1 (Q14457 whole entry): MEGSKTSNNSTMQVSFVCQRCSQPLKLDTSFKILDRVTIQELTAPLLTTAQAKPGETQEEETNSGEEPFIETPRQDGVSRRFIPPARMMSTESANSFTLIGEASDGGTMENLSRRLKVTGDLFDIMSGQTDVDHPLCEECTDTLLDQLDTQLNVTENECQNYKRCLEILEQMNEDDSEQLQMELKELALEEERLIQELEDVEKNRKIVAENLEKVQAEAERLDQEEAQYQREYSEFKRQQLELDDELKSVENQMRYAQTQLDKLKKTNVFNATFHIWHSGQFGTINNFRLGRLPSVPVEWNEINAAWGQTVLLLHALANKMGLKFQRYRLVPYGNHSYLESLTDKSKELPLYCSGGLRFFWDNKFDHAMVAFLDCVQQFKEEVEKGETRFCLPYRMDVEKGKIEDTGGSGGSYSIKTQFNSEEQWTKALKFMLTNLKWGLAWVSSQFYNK

Binder | binding result [1] | binding result [2]
B1 | binds | 
B2 |  | binds
B3 | binds | 

— article PMC5389741 (Molecular cell, 2017)
